Results: paper PMC5793033 (ACS Omega, 2018)

Biological target: the molecule itself

B1: NgDapB (4-hydroxy-tetrahydrodipicolinate reductase from Neisseria gonorrhoeae) (enzyme, UniProt B4RR35 1-269, looked up)
chain: MIPLKIAIAGANGRMGRVLVEAVNNHPDTVLSGALEHSGSEALGLDAGYAVGLKTGIAISDDVDAVLAQSDVLIDFTRPEPTLKHLQKCVEKQVNIIIGTTGFDDAGKAAIRAAAEKTGIVFAANFSVGVNLTFHILDTVARVLNEGYDIEIIEGHHRHKVDAPSGTALRMGEVIAGALGRDLKQCAVYGREGHTGPRDPSTIGFATVRAGDIVGDHTALFATDGERVEITHKAGSRMTFAAGAVRAAVWVNGKTGLYDMQDVLGLNNR
- stoichiometry N: 4
